# Assay results as given in patent US20230136252A1 (NANJING LEGEND BIOTECH, published 2023).
# T1: recombinant mouse GPC2-His (mouse, UniProt Q8BKV1 22-556, limits assumed)
# T1 construct: Bought protein; also called murine GPC2; RD System Cat #2355-GP; not shown: His tag
# T1 sequence (looked up): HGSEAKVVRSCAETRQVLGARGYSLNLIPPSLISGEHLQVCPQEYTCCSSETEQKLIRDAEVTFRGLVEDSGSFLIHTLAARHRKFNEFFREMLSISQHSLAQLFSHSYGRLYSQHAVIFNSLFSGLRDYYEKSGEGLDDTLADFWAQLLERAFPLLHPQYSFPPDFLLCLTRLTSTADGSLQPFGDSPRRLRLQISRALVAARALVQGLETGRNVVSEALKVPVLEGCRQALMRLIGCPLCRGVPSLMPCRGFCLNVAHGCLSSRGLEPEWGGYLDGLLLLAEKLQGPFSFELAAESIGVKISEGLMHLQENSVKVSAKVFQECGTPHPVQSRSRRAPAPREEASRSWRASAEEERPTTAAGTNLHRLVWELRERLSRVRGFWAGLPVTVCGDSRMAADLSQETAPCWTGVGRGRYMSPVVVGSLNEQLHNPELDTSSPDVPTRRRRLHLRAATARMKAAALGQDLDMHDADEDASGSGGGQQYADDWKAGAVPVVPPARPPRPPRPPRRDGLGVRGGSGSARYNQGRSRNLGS
# T2: recombinant human GPC1-His (human, UniProt P35052 24-530, limits assumed)
# T2 construct: Bought protein; also called RD System Cat #4519-GP; not shown: His tag
# T2 sequence (looked up): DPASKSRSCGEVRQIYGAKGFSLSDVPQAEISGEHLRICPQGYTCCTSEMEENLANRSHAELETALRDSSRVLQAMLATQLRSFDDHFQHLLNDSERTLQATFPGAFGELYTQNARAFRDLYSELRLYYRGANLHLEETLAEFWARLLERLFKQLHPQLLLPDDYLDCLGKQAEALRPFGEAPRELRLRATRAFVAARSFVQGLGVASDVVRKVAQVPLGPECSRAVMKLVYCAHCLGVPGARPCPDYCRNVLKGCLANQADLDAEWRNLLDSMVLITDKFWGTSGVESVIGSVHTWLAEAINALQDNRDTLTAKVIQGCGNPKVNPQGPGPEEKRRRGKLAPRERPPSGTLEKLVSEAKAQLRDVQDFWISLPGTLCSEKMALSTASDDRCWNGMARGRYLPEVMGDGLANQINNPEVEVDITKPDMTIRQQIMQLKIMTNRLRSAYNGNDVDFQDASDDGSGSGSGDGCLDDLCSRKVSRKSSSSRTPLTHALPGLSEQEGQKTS
# T3: recombinant human GPC6-His (human, UniProt Q9Y625 24-529, limits assumed)
# T3 construct: Bought protein; also called RD System Cat #2845-GP; not shown: His tag
# T3 sequence (looked up): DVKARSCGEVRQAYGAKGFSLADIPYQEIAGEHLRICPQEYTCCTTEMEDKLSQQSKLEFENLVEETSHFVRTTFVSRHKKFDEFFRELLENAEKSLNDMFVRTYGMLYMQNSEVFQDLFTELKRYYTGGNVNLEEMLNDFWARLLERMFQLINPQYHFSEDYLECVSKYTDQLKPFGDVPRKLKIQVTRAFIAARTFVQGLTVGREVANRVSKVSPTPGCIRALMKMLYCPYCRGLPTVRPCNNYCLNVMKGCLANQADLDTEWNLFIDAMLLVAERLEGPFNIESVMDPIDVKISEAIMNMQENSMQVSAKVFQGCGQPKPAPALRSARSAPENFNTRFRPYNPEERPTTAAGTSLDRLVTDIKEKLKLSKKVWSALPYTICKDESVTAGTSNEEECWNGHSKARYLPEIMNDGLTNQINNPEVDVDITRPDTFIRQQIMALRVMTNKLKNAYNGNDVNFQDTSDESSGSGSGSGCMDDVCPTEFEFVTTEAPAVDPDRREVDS
# What was measured:
# [1] = target: T1, recombinant mouse GPC2-His; assay: ELISA, plate coated with 2 ug/mL rmGPC2, VHH-hIgG1Fc detected with HRP goat anti-human IgG, OD450
# Procedure: (§1) To evaluate the specificity of humanized anti-GPC2 VHH5 to recombinant human GPC2 protein, an ELISA-based binding assay was conducted to determine the differential target proteins binding of anti-GPC2 VHH5. Briefly, microplates were coated with 2 μg/mL recombinant human GPC1-His (RD System, Cat #4519-GP), GPC2-His (RD System, Cat #2304-GP), GPC3-His (ACRO, Cat #GP3-H5223), GPC4-Fc (RD System, Cat #9195-GP), GPC5-His (RD System, Cat #2607-G5/CF), GPC6-His (RD System, Cat #2845-GP) or recombinant mouse GPC2-His (RD System, Cat #2355-GP) proteins. Recombinant human protein coated plates were blocked with skim milk. Serially diluted humanized VHH-hIgG1Fc recombinant antibodies were added to each well of the plates and incubated at 4° C. for 1.5 h. Samples were further labelled with HRP-conjugated goat anti human IgG (H+L) secondary antibody (Genescript, Cat #A00166-1) and signal was developed with 3,3′,5,5′-Tetramethylbenzidine (TMB) substrate according to manufacturer's instruction. For the GPC4, VHH-His recombinant antibodies and anti-His tag secondary antibody (Genescript, Cat #A00612) were added to the GPC4-Fc coated plates instead. Optic density at 450 nm was measured by plate reader.
# [2] = target: T2, recombinant human GPC1-His; assay: ELISA, plate coated with 2 ug/mL rhGPC1-his, VHH-hIgG1Fc detected with HRP goat anti-human IgG, OD450
# Procedure: as §1
# [3] = target: T3, recombinant human GPC6-His; assay: ELISA, plate coated with 2 ug/mL rhGPC6-his, VHH-hIgG1Fc detected with HRP goat anti-human IgG, OD450
# Procedure: as §1
binding result [1],binding result [2],binding result [3],Binder
no binding (tested: about 300 nM),no binding (tested: about 300 nM),no binding (tested: about 300 nM),"AS78117VH4-hIgG1Fc (Fc fusion, also called anti-GPC2 VHH-hIgG1Fc; not shown: human IgG1 Fc fragment (hIgG1Fc)) EVQLVESGGGLVQPGGSLRLSCIVSRYTYATYSMAWFRQAPGKGLEGVSGLDSVGATGYAESVKGRFTISRDNSKNTLYLQMNSLRAEDTAVYYCVVDPASAKVTYGSWSTPSYAYWGQGTLVTVSS"
no binding (tested: about 300 nM),no binding (tested: about 300 nM),no binding (tested: about 300 nM),"AS79236VH6-hIgG1Fc (Fc fusion, also called anti-GPC2 VHH-hIgG1Fc; not shown: human IgG1 Fc fragment (hIgG1Fc)) EVQLVESGGGLVQPGGSLRLSCAVSGYTYSSYCMAWFRQAPGKGLEGVASIDAGGRTTYVDSVKGRFTISKDNAKNSLYLQMNSLRAEDTAMYYCAVDVRTRCGGTWDGEAVYFPYWGQGTLVTVSS"
no binding (tested: about 300 nM),no binding (tested: about 300 nM),no binding (tested: about 300 nM),"AS70950VH6-hIgG1Fc (Fc fusion, also called anti-GPC2 VHH-hIgG1Fc; not shown: human IgG1 Fc fragment (hIgG1Fc)) EVQLVESGGGLVQPGGSLRLSCAISEFTYKNTCVGWFRQAPGKGREGVAAIDSDGNTNYVDSVKGRFTISQDNSKNTVYLQMNSLRAEDTAMYYCAAGAYCGRLLLWIGNYAYWGQGTLVTVSS"
